Experimental data: paper PMC7203880
Several values for one entry are separate records, joined by “and”; a condition that tells them apart may be missing. Equal values may be shown once.

Molecular target: Slr0058 protein from Synechocystis sp. PCC 6803, His-tagged (Synechocystis sp. PCC 6803)
Assay: SEC; Superose 6 Increase 10/300 GL on ÄKTAmicro; 100 mM KCl, 50 mM Tris-HCl pH 7.8, 5 mM MgCl2; 100 µl of Slr0058 at 0.313 mg/ml

- stoichiometry N: 2 and 3
Substance: Slr0058 protein from Synechocystis sp. PCC 6803, His-tagged (natural protein)
